In patent US20030199671A1, “Binding molecules for Fc-region polypeptides” (priority 2001, published 2003) one finds Dynamic Cap. and Static Cap. data, which are given here for two molecules.

For test [1], the target named is human IgG (unfractionated, polyclonal). Description: total dynamic capacity.
Test [2] shares this target. Description: filterplate; 25 mg human IgG applied per ml resin.

Starred links: 1 amine or outer side, 2 acyl side, 3 side chain; linkers in the order of their positions; H or OH if unused. Primed or numbered codes have the meaning given here. code X″ = C-terminal linker unit, -NH-(CH2CH2O)2-CH2CH2- (X-NH2 = -NH-(CH2CH2O)2-CH2CH2-NH2), C(COCCOCC[*:2])N[*:1]; Su = not defined here

B1: DX877 (peptide)
peptide: Ac-GDDHMCVYTTWGELIWCDNHEPGPEG-{NH‑(CH2CH2O)2‑CH2CH2‑NH2}
modifications: not fully specified (bridges); printed as Ac-GDDHMCVYTTWGELIWCDNHEPGPEG-X-NH2; cysteine pairing not given here
B1 showed a Dynamic Cap. in test [1] of 8 mg/mL. The Static Cap. in test [2] stood at 20 mg/mL.

B2: DX878 (peptide)
peptide: Ac-GDDHMCVYTTWGELIWCDNHEPG-{code X″-Su-code X″-NH2}
modifications: not fully specified (bridges); printed as Ac-GDDHMCVYTTWGELIWCDNHEPG-X-Su-X-NH2; cysteine pairing not given here; reading uncertain
B2: in test [1], the Dynamic Cap. came to 9 mg/mL. In test [2], the Static Cap. amounted to 23 mg/mL.
